Measured values reported in paper PMC7299998, “Recombinant Bri3 BRICHOS domain is a molecular chaperone with effect against amyloid formation and non-fibrillar protein aggregation” (Scientific Reports, 2020).

T1: citrate synthase (CS) from porcine heart (porcine, UniProt P00889 28-464)
T1 construct: citrate synthase, mitochondrial, from porcine heart; Used native (fresh) or partly heat-denatured (2 h at 45 °C); the assays tell the two states apart; source: bought: Sigma-Aldrich (from porcine heart)
T1 sequence (looked up): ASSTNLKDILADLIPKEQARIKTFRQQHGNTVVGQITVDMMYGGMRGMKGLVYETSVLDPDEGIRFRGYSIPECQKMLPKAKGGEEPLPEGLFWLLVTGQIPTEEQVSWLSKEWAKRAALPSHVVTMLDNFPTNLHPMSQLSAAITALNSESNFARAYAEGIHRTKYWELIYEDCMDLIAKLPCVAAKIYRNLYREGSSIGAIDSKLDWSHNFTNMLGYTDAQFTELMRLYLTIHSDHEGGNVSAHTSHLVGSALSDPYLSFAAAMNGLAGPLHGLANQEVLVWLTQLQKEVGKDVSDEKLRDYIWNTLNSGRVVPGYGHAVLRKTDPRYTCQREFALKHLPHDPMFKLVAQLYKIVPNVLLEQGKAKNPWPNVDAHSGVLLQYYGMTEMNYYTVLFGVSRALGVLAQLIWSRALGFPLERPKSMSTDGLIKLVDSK


Key:
[1] = target: the molecule itself; assay: SEC; rh BRICHOS alone on Superose 6 10/300 GL, 0.5 ml/min, 20 mM PB, 0.2 mM EDTA pH 8.0 or 20 mM ammonium acetate pH 8.0; hydrodynamic diameter by comparison with standards
[2] = target: T1, citrate synthase (CS) from porcine heart; assay: SEC; supernatant of CS:rh Bri3 BRICHOS 1:2 molar ratio after 2 h at 45 °C and centrifugation; Superose 6, 20 mM ammonium acetate pH 8.0, 0.7 ml/min; peak fractions by reducing SDS-PAGE; conditions: both partners purified
[3] = target: the molecule itself; assay: negative-stain transmission electron microscopy; oligomers isolated by SEC (Superose 6, 20 mM ammonium acetate pH 8.0), uranyl acetate stain, reference-free 2D classification, Feret's diameters

binding result [2]	Binder	binding result [1]	binding result [3]
binds	recombinant human (rh) Bri3 BRICHOS domain (domain or fragment, UniProt Q9NQX7 112-230, looked up, Bri3, human, residues 112-230 (BRICHOS domain); Bri3 is a 267-residue protein; Mainly high molecular weight oligomers, partly held by disulfide bonds; Calculated monomer mass 17.3 kDa with the S tag; Vector pET-32c(+); also called Bri3(112-230); rh (S-tag) Bri3 BRICHOS; source: E. coli Shuffle T7, purified (Ni-Sepharose from 2 M urea extract, thrombin cleavage, second Ni-Sepharose); not shown: …) MELEEDVKIYLDENYERINVPVPQFGGGDPADIIHDFQRGLTAYHDISLDKCYVIELNTTIVLPPRNFWELLMNVKRGTYLPQTYIIQEEMVVTEHVSDKEALGSFIYHLCNGKDTYRL	binds	
	recombinant human (rh) Bri2 BRICHOS domain (domain or fragment, UniProt Q9Y287 90-236, looked up, Bri2 (ITM2B), human, residues 90-236 (linker part and BRICHOS domain); The modelled and aligned Bri2 BRICHOS is 113-231; the expressed construct is 90-236; Vector pET-32c(+); also called Bri2(90-236); source: E. coli Shuffle T7, purified (Ni-Sepharose from 2 M urea extract, thrombin cleavage, second Ni-Sepharose); not shown: Trx, N-terminal, cleaved; His6, N-terminal, cleaved; S tag, N-terminal, …) GIKYIKDDVILNEPSADAPAALYQTIEENIKIFEEEEVEFISVPVPEFADSDPANIVHDFNKKLTAYLDLNLDKCYVIPLNTSIVMPPRNLLELLINIKAGTYLPQSYLIHEHMVITDRIENIDHLGFFIYRLCHDKETYKLQRRET		binds
